Reference: US20250171512A1

The binders below were run against human FGFR1c together with human beta-Klotho (KLB), stably expressed on CHO Flp-In cells (human), P11362 (assay: cell-based or functional assay).
human FGFR1c together with human beta-Klotho (KLB), stably expressed on CHO Flp-In cells (human), P11362, sequence (P11362 22-822, chain 1 of 2): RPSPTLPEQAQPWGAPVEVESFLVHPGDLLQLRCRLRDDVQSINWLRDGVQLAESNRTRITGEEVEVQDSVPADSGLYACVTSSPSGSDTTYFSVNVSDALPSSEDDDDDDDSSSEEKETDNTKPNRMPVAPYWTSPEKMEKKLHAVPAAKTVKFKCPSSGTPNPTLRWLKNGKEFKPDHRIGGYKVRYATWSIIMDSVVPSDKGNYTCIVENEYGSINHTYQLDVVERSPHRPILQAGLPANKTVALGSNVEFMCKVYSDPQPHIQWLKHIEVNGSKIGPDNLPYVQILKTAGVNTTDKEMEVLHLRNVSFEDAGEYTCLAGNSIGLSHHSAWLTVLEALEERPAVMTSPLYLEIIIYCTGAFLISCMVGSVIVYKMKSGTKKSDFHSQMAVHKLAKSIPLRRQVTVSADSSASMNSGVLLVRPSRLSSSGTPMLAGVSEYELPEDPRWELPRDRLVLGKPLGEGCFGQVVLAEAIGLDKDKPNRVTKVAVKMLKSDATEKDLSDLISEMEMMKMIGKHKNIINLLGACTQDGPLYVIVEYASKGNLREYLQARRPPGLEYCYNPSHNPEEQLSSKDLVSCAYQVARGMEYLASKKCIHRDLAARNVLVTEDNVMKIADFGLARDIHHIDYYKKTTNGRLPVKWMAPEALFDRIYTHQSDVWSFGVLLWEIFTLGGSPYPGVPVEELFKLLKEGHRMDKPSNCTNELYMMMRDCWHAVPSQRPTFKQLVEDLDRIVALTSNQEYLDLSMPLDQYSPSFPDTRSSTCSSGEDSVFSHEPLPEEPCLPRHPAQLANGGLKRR
human FGFR1c together with human beta-Klotho (KLB), stably expressed on CHO Flp-In cells (human), P11362, sequence (Q86Z14 whole entry, chain 2 of 2, further chain): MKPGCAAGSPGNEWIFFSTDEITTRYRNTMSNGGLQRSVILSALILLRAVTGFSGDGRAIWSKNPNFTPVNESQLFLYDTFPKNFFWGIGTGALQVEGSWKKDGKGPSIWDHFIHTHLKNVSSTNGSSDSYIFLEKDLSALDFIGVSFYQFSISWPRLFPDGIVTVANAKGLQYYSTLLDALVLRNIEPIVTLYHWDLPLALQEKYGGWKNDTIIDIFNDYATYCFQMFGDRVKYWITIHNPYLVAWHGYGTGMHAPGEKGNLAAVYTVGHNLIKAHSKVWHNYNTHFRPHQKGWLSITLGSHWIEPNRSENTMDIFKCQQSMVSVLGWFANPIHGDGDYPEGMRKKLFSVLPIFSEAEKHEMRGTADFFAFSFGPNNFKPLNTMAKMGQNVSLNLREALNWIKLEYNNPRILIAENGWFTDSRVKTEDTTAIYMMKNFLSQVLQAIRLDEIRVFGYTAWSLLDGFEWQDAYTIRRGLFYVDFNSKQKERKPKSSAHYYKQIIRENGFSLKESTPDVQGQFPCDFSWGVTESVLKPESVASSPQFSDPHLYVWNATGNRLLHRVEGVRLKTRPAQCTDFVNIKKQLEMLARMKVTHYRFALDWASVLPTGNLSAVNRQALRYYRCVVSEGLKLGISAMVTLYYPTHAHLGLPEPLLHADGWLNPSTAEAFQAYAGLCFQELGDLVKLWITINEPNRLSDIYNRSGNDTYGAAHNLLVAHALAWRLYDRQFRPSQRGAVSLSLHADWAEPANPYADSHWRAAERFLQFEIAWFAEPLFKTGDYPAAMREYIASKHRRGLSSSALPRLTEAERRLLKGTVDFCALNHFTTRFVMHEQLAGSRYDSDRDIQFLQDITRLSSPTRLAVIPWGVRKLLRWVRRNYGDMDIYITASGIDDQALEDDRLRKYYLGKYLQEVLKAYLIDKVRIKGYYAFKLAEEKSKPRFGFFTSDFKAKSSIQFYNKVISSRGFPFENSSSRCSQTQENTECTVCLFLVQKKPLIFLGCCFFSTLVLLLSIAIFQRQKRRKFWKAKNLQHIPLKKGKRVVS

| Binder | pERK ICW EC50 [nmol/L] |
| --- | --- |
| FGF21 N149-D155 deleted and replaced by GSGS (SEQ ID NO: 143), Q9NSA1 29-209 (ligand) GHPIPDSSPLLQFGGQVRQRYLYTDDAQQTEAHLEIREDGTVGGAADQSPESLLQLKALKPGVIQILGVKTSRFLCQRPDGALYGSLHFDPEACSFRELLLEDGYNVYQSEAHGLPLHLPGGSGSPAPRGPARFLPLPGLPPAPPEPPGILAPQPPDVGSSDPLSMVGPSQGRSPSYAS | 0.28 |
| FGF21 N149-D155 deleted and replaced by ATTS (SEQ ID NO: 145), Q9NSA1 29-209 (ligand) GHPIPDSSPLLQFGGQVRQRYLYTDDAQQTEAHLEIREDGTVGGAADQSPESLLQLKALKPGVIQILGVKTSRFLCQRPDGALYGSLHFDPEACSFRELLLEDGYNVYQSEAHGLPLHLPGATTSPAPRGPARFLPLPGLPPAPPEPPGILAPQPPDVGSSDPLSMVGPSQGRSPSYAS | 0.02 |

Other lines, results leading:

| pERK ICW EC50 [nmol/L] | Binder |
| --- | --- |
| 0.1 | FGF21 N149-D155 deleted and replaced by GSHSG (SEQ ID NO: 144), Q9NSA1 29-209 (ligand) GHPIPDSSPLLQFGGQVRQRYLYTDDAQQTEAHLEIREDGTVGGAADQSPESLLQLKALKPGVIQILGVKTSRFLCQRPDGALYGSLHFDPEACSFRELLLEDGYNVYQSEAHGLPLHLPGGSHSGPAPRGPARFLPLPGLPPAPPEPPGILAPQPPDVGSSDPLSMVGPSQGRSPSYAS |
| 0.39 | FGF21 R163H (SEQ ID NO: 141), Q9NSA1 29-209 (ligand) GHPIPDSSPLLQFGGQVRQRYLYTDDAQQTEAHLEIREDGTVGGAADQSPESLLQLKALKPGVIQILGVKTSRFLCQRPDGALYGSLHFDPEACSFRELLLEDGYNVYQSEAHGLPLHLPGNKSPHRDPAPRGPAHFLPLPGLPPAPPEPPGILAPQPPDVGSSDPLSMVGPSQGRSPSYAS |
| 0.84 | FGF21 P158H, R159H (SEQ ID NO: 142), Q9NSA1 29-209 (ligand) GHPIPDSSPLLQFGGQVRQRYLYTDDAQQTEAHLEIREDGTVGGAADQSPESLLQLKALKPGVIQILGVKTSRFLCQRPDGALYGSLHFDPEACSFRELLLEDGYNVYQSEAHGLPLHLPGNKSPHRDPAHHGPARFLPLPGLPPAPPEPPGILAPQPPDVGSSDPLSMVGPSQGRSPSYAS |
